± gives the uncertainty stated by the source.

From the supplement of paper PMC12042874 come the findings set out here.

A short description of the data set: amyloid nucleation score (Sup35N fusion, yeast selection) (log enrichment); library NNK2; higher = more nucleation; inactive = no reads after selection. The method in brief: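 Sup35N was fused to peptides of 20 random codons and expressed in psi-negative yeast, which were induced with 100 μM copper sulfate for 24 hours and then grown on medium lacking adenine and uracil for 7 days at 30°C. Plasmid inserts from input and output were sequenced on Illumina. The nucleation score is the DiMSum log enrichment of output over input reads, centred on the mode score of non-aggregating sequences. Sequences with under 100 input reads were left out, and random libraries had three technical output replicates.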
SQSKDMMCLSGSYSYYTACA displayed an amyloid nucleation score of -1.21 ± 0.78.

In turn, YNLYHSCLDQRTYHSGKFSI had an amyloid nucleation score of 2.3 ± 0.14.

On to TAIYENYCMSVMWMLVVGRI, for which the amyloid nucleation score is -0.277 ± 0.3.

Consider CVHIKEVLAWLDRCGLGYVW, for which the amyloid nucleation score worked out at 0.662 ± 0.81.

IGWGYRWVRWL displayed an amyloid nucleation score of -0.415 ± 0.5.

Turning to YGLAFTEDATFFKVCTY, the amyloid nucleation score was -0.211 ± 0.8.

In turn, LSLNFLPYWLPQARCL had an amyloid nucleation score of 5.06 ± 0.099.

As for DKYSIVSSGPYMSNKSLVRR, the amyloid nucleation score was -0.109 ± 0.79.

The substance SEQWSQIYGAFSV gave an amyloid nucleation score of -1.32 ± 0.63.

On to NREIMMD, for which the amyloid nucleation score was -0.184 ± 1.1.

CRHMSDHWKSSR registered an amyloid nucleation score of -0.562 ± 0.54.

In the case of IFSLDFSGYVSLYLQKMNVL, the amyloid nucleation score turned out to be 0.815 ± 0.15.

The substance NWVSIEHNYIFVLRYPENAS showed an amyloid nucleation score of 8.465 ± 0.042.

TLVNCVSMWWALHSVANGNG had an amyloid nucleation score of 3.3 ± 0.11.

As to SIVYTLTCVL, the amyloid nucleation score was found to be 4.945 ± 0.038.

For FVYNLTKTGLCYAQSVKYHN, the amyloid nucleation score was -0.483 ± 0.39.

As to RFWMNNSLNLCQLILTR, the amyloid nucleation score turned out to be 0.333 ± 0.61.

Turning to RHVYWSRSPPRTYGKEWTKG, the amyloid nucleation score amounted to 0.647 ± 0.23.

CRAHMCLQFNYWTRVMNTPT: the amyloid nucleation score is 6.809 ± 0.068.

With FGNRLNFDILTTFVIKRWCM, the amyloid nucleation score was -0.342 ± 0.76.

For the substance KMSMSFSWWE, the amyloid nucleation score was 3.51 ± 0.068.

On to MIIVTAY, for which the amyloid nucleation score is -0.073 ± 0.49.

MGNSYIEVRSLYR returned an amyloid nucleation score of -0.578 ± 0.64.

WYVYSQ had an amyloid nucleation score of 3.25 ± 0.052.

The substance YNSVVADKWCSFSK yielded an amyloid nucleation score of 0.155 ± 1.1.

In turn, GNGMNWPC gave an amyloid nucleation score of 2.16 ± 0.13.

In turn, DGFYCL returned an amyloid nucleation score of 0.019 ± 1.1.

On to IFSISNFAITVSNTLTV, for which the amyloid nucleation score stood at 1.06 ± 0.32.

Substance SFHSCNVS registered an amyloid nucleation score of -0.363 ± 0.74.

For the substance MRCWFTFVWCVIYY, the amyloid nucleation score result is “inactive”.

With VYRDDCFHFLDTSQTGACLT, the amyloid nucleation score was determined as 0.797 ± 0.4.

KDAPKFIYFSQLTTKCITRY gave an amyloid nucleation score of 4.14 ± 0.044.

ILLYRNAYWYPGKSSICLTS showed an amyloid nucleation score of -1.06 ± 0.49.

In turn, NTGSLWG had an amyloid nucleation score of -1.41 ± 1.1.

Consider NHSTVYLLMEISTGLVISGN, for which the amyloid nucleation score came out at 1.99 ± 0.16.

With TSVYPRGYFPVSCACYFLLE, the amyloid nucleation score was -1.3 ± 0.48.

DCDVSVNSVYITVKSAICAV showed an amyloid nucleation score of 0.767 ± 0.66.

The substance INHKQGCSTVWPVAKVCMLV came in with an amyloid nucleation score of 0.201 ± 1.

As for FFQFTTDSHCND, the amyloid nucleation score came out at 0.654 ± 0.8.

As to WSWLSFYLSGMAFLVRYKSG, the amyloid nucleation score was -0.344 ± 0.56.

On to RHAASVWLKDQDVLYPTMT, for which the amyloid nucleation score is 0.995 ± 0.16.

As to MTMMVGRIISTNRVYS, the amyloid nucleation score worked out at 1.29 ± 0.53.

Substance ESKIACCDMMLW registered an amyloid nucleation score of 5.89 ± 0.062.

On to DFLNWEDFCIMSECWNSTVQ, for which the amyloid nucleation score result is “inactive”.

Regarding CGQRCPKC, the amyloid nucleation score is 3.81 ± 0.063.

FNSCDAWYCMNSQVSRTTYL showed an amyloid nucleation score of -0.624 ± 0.41.

Consider RTNFVNGLAVVVRNM, for which the amyloid nucleation score is -0.015 ± 0.45.

Substance YEHVIGVWYLGCQGGWVGDH returned an amyloid nucleation score of 0.354 ± 0.29.

Take SGLTSIWQPTRTRMMSPSRR: the amyloid nucleation score was found to be 0.08 ± 0.79.

Take YIGSVIIWRRKVSRFHLGEA: the amyloid nucleation score was found to be 0.102 ± 0.79.

GSQVCILLAKGLWMVVFRIE displayed an amyloid nucleation score of -0.795 ± 0.55.

NADPNCLSK gave an amyloid nucleation score of 0.508 ± 0.57.

On to GALRPAFLSCKMVWR, for which the amyloid nucleation score was 0.528 ± 0.49.

SGGAVAYREAKWWSASNLRS gave an amyloid nucleation score of 0.373 ± 0.24.

The substance DRRELRHDDAVVAYIDVVIE had an amyloid nucleation score of 1.05 ± 0.28.

In the case of HPDGYVHRVGSLN, the amyloid nucleation score was -0.235 ± 1.1.

In the case of MVSCRN, the amyloid nucleation score came to 0.237 ± 1.

As to TVFFF, the amyloid nucleation score stood at 2.6 ± 0.11.

On to YESGVSCFFVYVMNTYHIWG, for which the amyloid nucleation score is 5.17 ± 0.097.

In turn, SCTPGLHQGCRCSVLLWEHR returned an amyloid nucleation score of 0.681 ± 0.47.

Regarding VHVWWANVIRVMYNHVRSDW, the amyloid nucleation score amounted to 0.133 ± 0.34.

Consider TVLWSRLDPPPRERKL, for which the amyloid nucleation score was 1.13 ± 0.34.

Substance MRGVTLYDYFDGIRIWRPLR registered an amyloid nucleation score of 3.76 ± 0.12.

The substance SCSANCRISLDSSRVVVPYY had an amyloid nucleation score of 0.571 ± 0.64.

For QSTFFCTLQLGSKYFKECLS, the amyloid nucleation score was -1.22 ± 0.61.

In the case of LSYSVNWWPRSGWSYYVNEF, the amyloid nucleation score was -0.176 ± 1.1.

For LRSLIYRCVLQWNTAKFLRS, the amyloid nucleation score is -0.716 ± 1.1.

GMGQTRKCHAGGNWHVYSCR registered an amyloid nucleation score of 0.738 ± 0.47.

As for GLGAKYWIYVVGFHCVHN, the amyloid nucleation score is 0.289 ± 0.39.

On to YSFAMLGGQESRMSMCCGER, for which the amyloid nucleation score was 0.791 ± 0.32.

Substance VCGMLTVIHWFLVIVVIDLV registered an amyloid nucleation score of 0.863 ± 0.58.

MTTFDIRIMA yielded an amyloid nucleation score of 0.195 ± 0.24.

In the case of GVPRMTSVDSYRLLLFSASR, the amyloid nucleation score came to 0.19 ± 0.25.

Substance VTFNALLGFLASICVITSRI came in with an amyloid nucleation score of 3.16 ± 0.072.

In the case of FAKLKIIGSARKYK, the amyloid nucleation score is -1.19 ± 0.61.

SFRANDNSFGCQWRRFLISG gave an amyloid nucleation score of 0.032 ± 0.42.

Take HICPFGCGYYLGEDKDAWSG: the amyloid nucleation score was -0.749 ± 0.56.

The substance IIFVFREYAINMKGVFK gave an amyloid nucleation score of 0.082 ± 1.

Consider FIRWSLWR, for which the amyloid nucleation score was -0.012 ± 1.1.

Consider PRRNTADCIGCTDRTGRRRC, for which the amyloid nucleation score was found to be 0.6 ± 0.39.

For the substance TRCFQILPCYRI, the amyloid nucleation score is -0.624 ± 0.76.

Substance LNRLCRRVCRSINDTIAIRE registered an amyloid nucleation score of -0.157 ± 0.26.

Consider FFFVPSFDTLEHTLRVGLLR, for which the amyloid nucleation score entry was “inactive”.

Regarding SLRIYGYMDRKSPKESSNFR, the amyloid nucleation score was 0.975 ± 0.37.

In the case of WRVATCCAGRTIIQLETRFG, the amyloid nucleation score was 8.805 ± 0.058.

The substance QGLIFVSLFRCCSLCRQYTD returned an amyloid nucleation score of 2.72 ± 0.18.

As for STALAFYP, the amyloid nucleation score entry is “inactive”.

In turn, DGFRGLGLFHTY had an amyloid nucleation score of -0.561 ± 0.31.

KRFAIPEHTLTTYRQLA gave an amyloid nucleation score of 0.082 ± 0.42.

With ESDMCFVWSIELVGLMFKLI, the amyloid nucleation score is -0.979 ± 0.24.

In turn, DNVGYYNINKDLKFIVGSSH gave an amyloid nucleation score of 0.274 ± 1.1.

In turn, LANLTSWSILMAKRRLRLTL registered an amyloid nucleation score of 1.06 ± 0.33.

Turning to YTVWEEYHRAKSSGLT, the amyloid nucleation score is 1 ± 0.33.

For WHSVKMVNMFVGSKVISRSF, the amyloid nucleation score was 5.42 ± 0.07.

MGVRY yielded an amyloid nucleation score of 1.42 ± 0.38.

HLEPRIPLWMPVFGVSKVRS gave an amyloid nucleation score of 2.7 ± 0.12.

Consider AIRLLDVLRCRG, for which the amyloid nucleation score came to 3.88 ± 0.087.

Consider KKRLCDTSTIFQINNLHRMM, for which the amyloid nucleation score is -1.32 ± 0.76.

Substance ICTFYDTGLWVIYSVTRKAR yielded an amyloid nucleation score of -0.057 ± 0.65.

Regarding QSTWSHGFKGRSVWRGLTKG, the amyloid nucleation score was 1.66 ± 0.36.

For the substance NFSVNCLYNWARYACFLKGM, the amyloid nucleation score is 1.77 ± 0.12.

LNSQSLVAYMRAFVKDSPCR: the amyloid nucleation score was determined as 0.007 ± 1.1.

Take KRMKRLVCGTRVDMYRGSLW: the amyloid nucleation score was -0.222 ± 0.33.

Turning to SCDRIRMCCSWCQV, the amyloid nucleation score is 3.54 ± 0.049.

The substance SGWTFGVQCLYTLVSMFLLC gave an amyloid nucleation score of 1.5 ± 0.12.

SLDECHLSRRTNS showed an amyloid nucleation score of 0.411 ± 0.34.

For the substance IDPLKGMLD, the amyloid nucleation score is -2 ± 0.78.

Consider VTNHV, for which the amyloid nucleation score came to 0.895 ± 0.33.

In the case of WGMWCMFHCRVAS, the amyloid nucleation score was -0.196 ± 1.

The substance STVKVLVPEVHWSKATPRNY displayed an amyloid nucleation score of 2.99 ± 0.14.

LSLVYRIGLNCNRELSSFDW had an amyloid nucleation score of 2.33 ± 0.1.

In turn, ISRWTSIVFKRLNGRDKEMK gave an amyloid nucleation score of 4.29 ± 0.088.

Regarding VWDAEFSGPLRHEIMSGFVW, the amyloid nucleation score came out at 0.08 ± 0.3.

For the substance WVYFHSNNSDLLDNEIKLTR, the amyloid nucleation score came out at 0.652 ± 0.66.

Substance ERMFNMIALVRRAGGERNRT showed an amyloid nucleation score of 4.43 ± 0.059.

Consider LACIPGGKVNSPLGWHGFRD, for which the amyloid nucleation score amounted to 0.057 ± 1.1.

In turn, LRYVEGHGKDITSGGSLEEH showed an amyloid nucleation score of 1.41 ± 0.14.

Take TNSDSSTQKVIVMSLNAVVP: the amyloid nucleation score was 6.11 ± 0.049.

Take NPLQRTVYWFIIKRDCFHSV: the amyloid nucleation score was -1.46 ± 0.45.

Consider IQVRRITG, for which the amyloid nucleation score is 0.089 ± 0.29.

As for LYGRYANERWRLNSLDEKVT, the amyloid nucleation score is 0.881 ± 0.45.

Consider AVASVETDGSKIYMMDVLNY, for which the amyloid nucleation score is -1.16 ± 1.1.

In turn, SRFRA gave an amyloid nucleation score of 0.357 ± 0.27.

The substance HFRSLALISLAEKFITRIEK had an amyloid nucleation score of -0.13 ± 0.22.

For SMTRLLGRDGYTREYSSSSR, the amyloid nucleation score came to 0.834 ± 0.55.

Consider HMEAFWCWFYGNVAFNRFCV, for which the amyloid nucleation score is -0.305 ± 1.

Take FDPIRWLLNYIFMASTLYVE: the amyloid nucleation score is -0.804 ± 0.44.

As to SGTYR, the amyloid nucleation score entry is “inactive”.

As to LGQVTDLSILCSSDQSLMVC, the amyloid nucleation score was -0.075 ± 0.26.

In turn, HGYRLSHSQPKSTSSLV gave an amyloid nucleation score of -0.083 ± 0.63.

In turn, NDGCIGVFFDRMVPDWVTTL showed an amyloid nucleation score of -0.477 ± 0.48.

With SILTVKQRTYVNGGRLYSRY, the amyloid nucleation score was determined as 0.005 ± 0.49.

VWRIRTAMGTG returned an amyloid nucleation score of 0.766 ± 0.19.

FVCYADTNNGPQVVRTELSV came in with an amyloid nucleation score of -0.299 ± 1.1.

For the substance SRSVFIRSLAVITVIWILT, the amyloid nucleation score stood at 1.34 ± 0.13.

Substance LHQTV displayed an amyloid nucleation score of 0.79 ± 0.57.

ILVSTIEGCLDYNLCFLAGL: the amyloid nucleation score stood at 1.67 ± 0.12.

SRMFVFNVGVIEFWKLGGYN yielded an amyloid nucleation score of -0.716 ± 0.64.

Regarding TLYMFMPMLFNVIPEVRWPP, the amyloid nucleation score was found to be 9.03 ± 0.071.

The substance VKWLYTLDSNFVLVFVPCLT showed an amyloid nucleation score of -0.078 ± 0.39.
